Data on six variants can be found in PMC5520056, “Cryo-EM structures of the ATP-bound Vps4^E233Q hexamer and its complex with Vta1 at near-atomic resolution” (Nature Communications, 2017).

B1: Vps4^E233Q (full-length yeast Vps4 containing an mutation) [Saccharomyces cerevisiae] / itself (parent)
chain: MSTGDFLTKGIELVQKAIDLDTATQYEEAYTAYYNGLDYLMLALKYEKNPKSKDLIRAKFTEYLNRAEQLKKHLESEEANAAKKSPSAGSGSNGGNKKISQEEGEDNGGEDNKKLRGALSSAILSEKPNVKWEDVAGLEGAKEALKEAVILPVKFPHLFKGNRKPTSGILLYGPPGTGKSYLAKAVATEANSTFFSVSSSDLVSKWMGESEKLVKQLFAMARENKPSIIFIDQVDALTGTRGEGESEASRRIKTELLVQMNGVGNDSQGVLVLGATNIPWQLDSAIRRRFERRIYIPLPDLAARTTMFEINVGDTPCVLTKEDYRTLGAMTEGYSGSDIAVVVKDALMQPIRKIQSATHFKDVSTEDDETRKLTPCSPGDDGAIEMSWTDIEADELKEPDLTIKDFLKAIKSTRPTVNEDDLLKQEQFTRDFGQEGN

One assay covers variants of B1. In words: SEC. To be noted: with itself; in the presence of ATP; height of the broad peak at the hexamer elution position (~11.5-12 ml); read off a plot.
For MSTGDFLTKGIELVQKAIDLDTATQYEEAYTAYYNGLDYLMLALKYEKNPKSKDLIRAKFTEYLNRAEQLKKHLESEEANAAKKSPSAGSGSNGGNKKISQEEGEDNGGEDNKKLRGALSSAILSEKPNVKWEDVAGLEGAKEALKEAVILPVKFPHLFKGNRKPTSGILLYGPPGTGKSYLAKAVATEANSTFFSVSSSDLVSKWMGESEKLVKQLFAMARENKPSIIFIDQVDALTGTRGEGESAASRRIKTELLVQMNGVGNDSQGVLVLGATNIPWQLDSAIRRRFERRIYIPLPDLAARTTMFEINVGDTPCVLTKEDYRTLGAMTEGYSGSDIAVVVKDALMQPIRKIQSATHFKDVSTEDDETRKLTPCSPGDDGAIEMSWTDIEADELKEPDLTIKDFLKAIKSTRPTVNEDDLLKQEQFTRDFGQEGN [chain 1 E247A], the response is 72 mAU.

Still in this assay, the particulars now being: with itself; in the presence of ATP; height of the peak at the hexamer elution position (~12.5 ml); read off a plot.
MSTGDFLTKGIELVQKAIDLDTATQYEEAYTAYYNGLDYLMLALKYEKNPKSKDLIRAKFTEYLNRAEQLKKHLESEEANAAKKSPSAGSGSNGGNKKISQEEGEDNGGEDNKKLRGALSSAILSEKPNVKWEDVAGLEGAKEALKEAVILPVKFPHLFKGNRKPTSGILLYGPPGTGKSYLAKAVATEANSTFFSVSSSDLVSKWMGESEKLVKQLFAMARENKPSIIFIDQVDALTGTRGEGESEASRRIKTELLVQMNGVGNDSQGVLVLGATNIPWQLDSAIRRRFERRIYIPLPDLAARTTMFEINVGDTPCVLTKEDYRTLGAMTEGYSGSDIAVVVKDALMQPIRKIQSATHFKDVSTEDDETRKLTPCSPGDDGAIEMSWTDIEADELKEPDLTIKDFLKAIKSTRPTVNEDDLLKQEQFTRAFGQEGN [chain 1 D431A]: the response was 42 mAU.

Staying with this assay, now noted: with itself; in the presence of ATP; height of the peak at the hexamer elution position (~12 ml); read off a plot.
As for MSTGDFLTKGIELVQKAIDLDTATQYEEAYTAYYNGLDYLMLALKYEKNPKSKDLIRAKFTEYLNRAEQLKKHLESEEANAAKKSPSAGSGSNGGNKKISQEEGEDNGGEDNKKLRGALSSAILSEKPNVKWEDVAGLEGAKEALKEAVILPVKFPHLFKGNRKPTSGILLYGPPGTGKSYLAKAVATEANSTFFSVSSSDLVSKWMGESEKLVAQLFAMARENKPSIIFIDQVDALTGTRGEGESEASRRIKTELLVQMNGVGNDSQGVLVLGATNIPWQLDSAIRRRFERRIYIPLPDLAARTTMFEINVGDTPCVLTKEDYRTLGAMTEGYSGSDIAVVVKDALMQPIRKIQSATHFKDVSTEDDETRKLTPCSPGDDGAIEMSWTDIEADELKEPDLTIKDFLKAIKSTRPTVNEDDLLKQEQFTRDFGQEGN [chain 1 K215A], the response worked out at 88 mAU.

In the case of MSTGDFLTKGIELVQKAIDLDTATQYEEAYTAYYNGLDYLMLALKYEKNPKSKDLIRAKFTEYLNRAEQLKKHLESEEANAAKKSPSAGSGSNGGNKKISQEEGEDNGGEDNKKLRGALSSAILSEKPNVKWEDVAGLEGAKEALKEAVILPVKFPHLFKGNRKPTSGILLYGPPGTGKSYLAKAVATEANSTFFSVSSSDLVSKWMGESEKLVKQLFAMARENKPSIIFIDQVDALTGTRGEGESEASRRIKTELLVQMNGVGNDSQGVLVLGATNIPWQLDSAIRRRFERRIYIPLPDLAARTTMFEINVGDTPCVLTKEDYRTLGAMTEGYSGSDIAVVVKDALMQPIRKIQSATHFKDVSTEDDETRKLTPCSPGDDGAIEMSWTDIEADEAKEPDLTIKDFLKAIKSTRPTVNEDDLLKQEQFTRDFGQEGN [chain 1 L396A], the response turned out to be 65 mAU.

The same assay, now with this note: with itself; height of the peak at the hexamer elution position (~12 ml); read off a plot.
MSTGDFLTKGIELVQKAIDLDTATQYEEAYTAYYNGLDYLMLALKYEKNPKSKDLIRAKFTEYLNRAEQLKKHLESEEANAAKKSPSAGSGSNGGNKKISQEEGEDNGGEDNKKLRGALSSAILSEKPNVKWEDVAGLEGAKEALKEAVILPVKFPHLFKGNRKPTSGILLYGPPGTGKSYLAKAVATEANSTFFSVSSSDLVSKWMGESEKLVKQLFAMARENKPSIIFIDQVDALTGTRGEGESEASRRIKTELLVQMNGVGNDSQGVLVLGATNIPWQLDSAIRRAFERRIYIPLPDLAARTTMFEINVGDTPCVLTKEDYRTLGAMTEGYSGSDIAVVVKDALMQPIRKIQSATHFKDVSTEDDETRKLTPCSPGDDGAIEMSWTDIEADELKEPDLTIKDFLKAIKSTRPTVNEDDLLKQEQFTRDFGQEGN [chain 1 R289A]: the response amounted to 13 mAU.

The assay is the same for the next values; noted with them: with itself; in the presence of ATP; height of the broad peak at the hexamer elution position (~12 ml); read off a plot.
Turning to MSTGDFLTKGIELVQKAIDLDTATQYEEAYTAYYNGLDYLMLALKYEKNPKSKDLIRAKFTEYLNRAEQLKKHLESEEANAAKKSPSAGSGSNGGNKKISQEEGEDNGGEDNKKLRGALSSAILSEKPNVKWEDVAGLEGAKEALKEAVILPVAAPHLFKGNRKPTSGILLYGPPGTGKSYLAKAVATEANSTFFSVSSSDLVSKWMGESEKLVKQLFAMARENKPSIIFIDQVDALTGTRGEGESEASRRIKTELLVQMNGVGNDSQGVLVLGATNIPWQLDSAIRRRFERRIYIPLPDLAARTTMFEINVGDTPCVLTKEDYRTLGAMTEGYSGSDIAVVVKDALMQPIRKIQSATHFKDVSTEDDETRKLTPCSPGDDGAIEMSWTDIEADELKEPDLTIKDFLKAIKSTRPTVNEDDLLKQEQFTRDFGQEGN [chain 1 K154A F155A], the response was found to be 44 mAU.
